From a protein production outcome set (Wang et al. 2014)

Assay: label from the status in PepcDB records

Sequence	protein production
MKVVLVGATGFVGRHLLAALHAAGHQLIATSRRPQPQGLPGVEWRQLDLDCLGREPQPFALPADTDLLINAAGLLSTDARALSLTQDLGTRALFDLAAARGVRVLQISALGAGILPQVPFLASKAAADDYLLQLGVPAVVLRPSLVLGAGGASSGWLTRLSPWPLIPLLSAKAQMQPLHIEDLSAAVLALLRQWPQESMVLPLVGPERMTMAQLLDRLRSAQGWAPARYFKLPAVLLRLVAAAGDRLGWRALNRQSLAMARHDNLADPQVLASVCGYHAAPLAARLQDWPQAAQSTQLALRPLLLAVMVLIWLGTALVCIGPGYAWGLRIMAEAGVQGIWAALAVIGGSLCDALLGVGLLLRRWRRRALQAQLGLMLGYTLIISLILPHFWFDPYAAVAKNLVLMVATLWLLWTEPHQ	failed
MKVWPVKHSPLLRQPERFIARSELQALIRNVTQNLVNIKDESGQFLLRLDDGRVIDTKGWAGWEWTHGVGLYGIYQYYQQTGDIEMRDIIDRWFADRFAEGATTKNVNTMAPFLTLAYRFEETGRMAYLPWLESWAEWAMHEMPRTEQGGMQHMTLAEENHQQMWDDTLMMTVLPLAKIGKLLNRPQYVEEATYQFLLHVQNLMDRETGLWFHGWNYEGRHNFARARWARGNSWLTMVIPDFLELVDLPEGNAVRRYLITVLDAQIAALAECQDDSGLWHTLLDDPHSYLEASATAGFAYGILKAVRKRYVGQHYAGVAEKAIRGIVQNISPQGELLQTSFGTGMGSDLDFYRQIPLTSMPYGQAMAILCLTEYLRKYF	not failed
MKVYLESFGCSASQASAEIMKASIGKLGHELLSPENAGQAEVYICNSCTVKYTTEQKILYKIRSMGEKGVQVIVSGCMPEVQLEDILHANPEAHILGVNAVSRLGDLLSTIEQRKKTGIPGGERLEIRTSEPQGFLNVPRERSNPNIHICQISQGCNFACSYCIVKHARGKLLSFPPEEIIEDIRSAVADGCREIWLTSQDDSQYGMDTGVKLPELLRAISEIPGDFKVRVGMMNPFSVLPILDDLVDAFDSDKIFKLLHLPIQSASHSVLKKMNRLHKMDSVDEIITKFRAHFEDLSLFTDIIVGFCDETDEDFEETIEWVKKYRPEKINISRYSPRPHTKAFSFRNLDSRISVKRSHQLHKVCEQIKIESKNEMIGWKGRVFVSKYTEIGDVLTRTDSYRPVVISGSDLRPGEYAEVKITGAKPGYFLGKLVSLEHHHHHH	not failed
MKWDKKWNDGIILALETAFISWFTYAFLYQNYLLYKWHRGSPLPSKIPFVLAGIFVGLAFLAWKGRNLLKPLRENNGGALDERS	failed
MKWNLDPSHTSIDFKVRHMGIASVRGSLKVLSGSVETDEAGRPIQVEAVIDAASIATGEPQRDGHLRSADFLHAEQYPEIRFVSTQIEPLGGNRYRIQGNLTIRDITKPVTLEAEVSAPIKDPWGMQRVAASASGQINRKDWNLTWNQVLELGALLVGEEVKFNLEVEAVAPAPVAAQ	not failed
MKYEYPAELPVSAARDEIASAVKRSQVVIVSGQTGSGKTTQLPKILLELGRGTHGKQIVHTQPRRIAARTVAERIASEMGVKLGDEVGYQVRFTDESSPGTRLRVVTDGILLAQIQRDPKLTRYDTIIIDEAHERSLNIDFLLGYLTALLPQRRDLKLIITSATIDSVKFQEHFEHALHEKVPVIEVSGRTFPVQVVYEPLGTAPALMREVPGFAVGARPGDADYDELASAIAESDSDRPRGRSGASYADDGITDMPTAVARACAELVIHSSHERGPRDILVFASGERDIHEFEAALRHHYGPRADDMRRPDAIEIMPLFARLSAADQHKVFESHLHQRIVIATNVAETSLTVPGIRYVVDPGSARISRYSKTAKVQRLPIEPISQASADQRSGRCGRVADGIAIRLYSREDYETRPRFTEPEILRTSLGAVVLHMLSVGVARTAEDVTNFGFIDPPDMKAVSDGFNELTELKAIGRKRGEVTLTHTGRQLARIPIDVRLGRMVIEAAKTGSPNLLAQVLVVVAFLSLQDPRERPDDKREDADRIHNRYADETSDFLTALNIWDRVFQADGDPSNNALRRICKTEYFSWLRMRQWKDLVSQLRQMCKELKFKVGDPLPASRPGLEIRQLPLNQQAAHSLCCAWDADGIHKSMLAGLLSMMGMQVVREPKASDFAGLTGSARARAMKRAQKQSKNDYQGARGTRFALFPASAVAKKTPSWVMSTELVETSRLWARYSAAIDPAWAEPLAGQLTRTTYAEPHWSGSRGSAVATARVLLYGLPIVQDRAVQWGRINPLEARDFLIRQGLVEGDIQQRFSYDDFVGKNRDILEDAADDASRTRQLADTVSDEDLFDFYNAVIPNDVTSVADLAKWWKSEHDRQPNLLDFDPAKVERLASSDSVSLDDYPDHWHTTGSDGQPIDLRLSYVYDPADPADGVTVHVPLKALSRITPDQFTWNVPGLLDELILSMIKALPKQLRVQFVPAPDAARAIRDWIDEHYPDLPGSGSQQKPNLPPVDEDGTTVGWPDLAHVFTKAAIATKGAQIHPEVLGPELVERLSPYLRVTFSVEQQLPAGKHPRGRRHARGPIKVLGVSKDLKALQRKFAAQAEASARQMVKKQADQAGEQGKLVSQANLLHKAGATTESRATMLWRGALDALRLPAERISSRWLGTEALMLASAPYKSTKDLVEDLQLATVKRLMPNVDRLSDDEALANAVLDVREVYEDTVYQVAHDVIAVLKAYAEVDKATGGKADLPMLSVLQSIRDHIATLVYPGFIGRTPPDALKSLSRYLRADLSRLNKAKTDKNRDVKWAWQADEARQVVDKALARAKAEPAGPKHEALMKQAEQARWMLEEFYVSLWAQELGTKGPASLNRIKKALA	failed
MKYIIIGLGNYGHVLAEELSTLGHEVIGADLDEGRVDSIKDKIATAFVIDATDEQSLSVLPLNSVDMVIVAIGENFGASIRVVAMLKQKQVKHIYARAIDGVHKAVLEAFGLEKILTPEEDAARSLVQLLDFGTKMETFRVDSEYYVVKFNVPEKFVGYFVNELNLDEEFNLKLIGLKRSNTIKNCLGISLVEHKVVNELPEDAKIRPDDVLVCYGKYSDFQKLWKALLEHHHHHH	not failed
MKYISPGFVDAHSHIGMIPDGLEWEFQEANDFYSPIAPHLRAVDGFDPYDEAFKEAIAGGVTTVATGPGSANVMGGIGLLAKTYEEGFEKIIKPEAFIKMALGPKRPREYKSKYPYPTTRMGTVALMRTWFKRAREFMEGKIKTDNIDEEEIEMLRLLARALKREIQVKIHLSTSPDEIYAAIRIIKEFNLNATIDHAFGSQLVADMLSREGIPVIYGPPMITRIASFFRYVDDKAPVLLFKKGVNVSIMTDHPVLPEKHLRLLAAVVARNGLSLDDALKLITINPAKALGIDRFVGSLEHHHHHH	failed
MKYIVAVNASPRSGWNTSQLVEAAAKGAKEAGATVDIIDLYKLEPFQGCISCFGCKLPRTFGRCVSKDGLSEVLDKIRKADGLILGSPNYLGNLTAGFRALYERLIFQSLTYNKERPNCNEHMIPVLLITTSNCDESIYDKIGYTSMLEGYKQMLERFVGPLEHHHHHH	failed
MKYKAAIFDMDGTILDTSADLTSALNYAFEQTGHRHDFTVEDIKNFFGSGVVVAVTRALAYEAGSSRESLVAFGTKDEQIPEAVTQTEVNRVLEVFKPYYADHCQIKTGPFPGILDLMKNLRQKGVKLAVVSNKPNEAVQVLVEELFPGSFDFALGEKSGIRRKPAPDMTSECVKVLGVPRDKCVYIGDSEIDIQTARNSEMDEIAVNWGFRSVPFLQKHGATVIVDTAEKLEEAILGE	not failed
MKYPIVPLTKFGLFRAQTYAVLKRPYLVTALVSYFMVALLVIIYLNKAPSFTSDMEMVLPGTGSSNSVSLDNVGQVVSQTNTPFSGGGFNPRVNYKEMLSSRGVRARAAKKLHLSLEDLGEPRIKLTEQTSIISLEMSANGQELAQAKTLALYESLQDELNNLRADEVLRRDQSIEQVLDRYRERMNITRNAIVDFQQRSIVVSTDQMDQLVRTLSGVREKHLYVKAETKQLQEYIYQLSDELGVSPKLAGQAFALQSDVEFRAYITELKESITQLTEYSSRWGVNHPKVKAQQKRLNFTRISINERSSQMYGVNSNEIFNSLNLDLNPKRSELFADLIDAYAKQKGQESMLEDLGRSALHLGDQLKIYSREIVELERLQREFNMAEAIFTSAAARLEASKSDVFASYPVLQMLTTPSYPMKQSSPKNIIAFIGAITGFIFITLGLIILSQRNKLIQIILKKEETTSSNS	failed
MKYRFIDHTADIAFEVYGSNLRELFENAALAFYDAFVDTSGIGIEREVGVECEGEDVEITLYRWLNELLYLFDTEFFAAKDVEVEVEEGDGVKASGKLRGGRFSAEMVKVEPKAITLHKFRVEKTDKGYVAFVVVDI	failed
MKYTQSFCFVSVIVLSSSVHLHGQNNKMNVLLIIADDMRPELGCYGIEDIVTPRLDSLARYATVFQNAYCNIPVSGASRASLFTGMYPRYPNRFTAFDASAEKDCPEALSLPECFKKNGYYVVSNGKVFHNITDHADSWSEAPWRVHPDGYGKDWAEYNKWELWQNEESSRYVHPKTLRGPFCESADVADTTYIDGRVAQKTIADLRRLHKKEKPFFLACGFWKPHLPFNAPKKYWDLYRREEIHLAQNPYRPKALPKQVTSSGEIRGYGKFVTTKDETFQREAKHGYYACVSYIDAQIGLILDELDRLGLSENTIVVILGDHGWHLGEHGFWGKHNLMNHATRAPLIVRVPHCRGGKAKGIVEFVDIYPTLCELCGVPMPKDQLQGKSFVPILQDSGKKTKQYAFIQWKGGYNIVSEQYSSTIWLQGDSVVARMIFDRQLDASENENKVHCPYLSRERDKLEAQIKIRKSQLLEHHHHHH	failed
MKYTVYLFDFDYTLADSSRGIVTCFRSVLERHGYTGITDDMIKRTIGKTLEESFSILTGITDADQLESFRQEYSKEADIYMNANTILFPDTLPTLTHLKKQGIRIGIISTKYRFRILSFLRNHMPDDWFDIIIGGEDVTHHKPDPEGLLLAIDRLKACPEEVLYIGDSTVDAGTAAAAGVSFTGVTSGMTTAQEFQAYPYDRIISTLGQLISVPEDKSGCPL	not failed
MLAAGEGKRMGACKPLLPLGASTVLAHVAKTLLPAINGPLVVVTGHHGDAVTAEALRLSLETAENTTPQDGMFSSVRTGIAHIVGRVDGVLVLPADIPFVRTATCALVVEAFRRHRAAVTYPTLCGERGHPPLLDADTMRAVLASSGDGGLRGVLLALERQGGTTHDVAVADEGIVTDMDTPADHAQLVARHPLRHIPTPREREALLEMAGTPARVRAHCRMVARAALAMAAHLEATRRGFISPFARQSAPHGISTSGAHAEPRSVPASTTTHAVHAEGNTTLPHTATAHVACPPPDVTTGPMPTCQPGHMPDHMPGTARDAAQQAPAATASPQRLDRPLIHAAATLHDICKGTQRHEAAGGALLTRHGFPEVGSIIAAHRDIAPQAGPEIDEAALVMLADKYVRGVSLIPVEERFDERLREWAHRPDVACDIAARKARVLMVRDLFESETATELFPLLQRKVRRGTFLEHHHHHH	failed
MLACAIALRLAAAVAAPVDSPTVDVAPPAPAEVAPPGPGRTAAPDLSAPPPPPADRPGPWRVYGAAAAGAAASDVLFAGIFAIGMVQLFGDLWDGEASADAGGLTLALVGLGGFLAVTPAVTVWAAQRVAGRERTAAAYWACFGVRLLGFAAANAFPAATLATELVLAPWVVSRIVMSGAPAATPLRPEVPAPAGADGPATRARPLRDPALAWR	failed
MLAERRPAVTPTDGAQVLKALDAQAALLPYALGVFAVSLPLFVWVGSFAANPLWMTASFAIFAINWGVFYAAVSWIRDEPSQDLARRARVQVLCGVLWALAVMQISAFAHNAGPARETLLLLATAGAVLCAFFAAPYLPGLLIIAPLAAAGPLLAQFSSADSRHAGELTFGATALAMTLALILNRMFRRQHDLAISHEQLVVERLRVLEAAERTARSKSDIVATLSHEIRNGLTGVTHVLAAAAGRGGRAAPSREQLNAALDAAQDLIAVLNATLDSETAESGRLQVDARPFDPVRLVQDLALLDKPHAAAKGLELSVHVDPLLRERAKGAAIADALRTRQIVSNLLGNAVKYTVRGRVEVRLELRDDRIAIEVADTGPGLSTEELEQAFEPFRRVERTGAGVNGAGLGLSLSRQLARLMGGALEARSAVGVGSCFTLTLPFDLGAKDEQAEALDTAVAEASGAPRALRVLIAEDDALNAAMLRAVLEQLGHQVVHAANGRRAADLAKIAEFDLLMLDHRMPVMDGPEAASSLRQGDGPNRQTPIVAVIDGDAEEAAEFLEAGAEIVLRKPVSVAGVARALADAAALERTDPAKVAA	failed
